Results as given in patent EP1906184A1 (KYOWA HAKKO KOGYO CO., LTD., dated 2008).

Target: T1, soluble human VEGF receptor KDR 7N (human, UniProt P35968 20-757)
T1 construct: range 1-738; The range 1-738 counts on the mature protein, not on the precursor; Expressed in High Five insect cells (purity 70 to 80%); not shown: two amino acid residues derived from a linker
Assay: ELISA, receptor coated at 4 µg/ml, antibody concentration varied

T1 sequence (P35968 20-757): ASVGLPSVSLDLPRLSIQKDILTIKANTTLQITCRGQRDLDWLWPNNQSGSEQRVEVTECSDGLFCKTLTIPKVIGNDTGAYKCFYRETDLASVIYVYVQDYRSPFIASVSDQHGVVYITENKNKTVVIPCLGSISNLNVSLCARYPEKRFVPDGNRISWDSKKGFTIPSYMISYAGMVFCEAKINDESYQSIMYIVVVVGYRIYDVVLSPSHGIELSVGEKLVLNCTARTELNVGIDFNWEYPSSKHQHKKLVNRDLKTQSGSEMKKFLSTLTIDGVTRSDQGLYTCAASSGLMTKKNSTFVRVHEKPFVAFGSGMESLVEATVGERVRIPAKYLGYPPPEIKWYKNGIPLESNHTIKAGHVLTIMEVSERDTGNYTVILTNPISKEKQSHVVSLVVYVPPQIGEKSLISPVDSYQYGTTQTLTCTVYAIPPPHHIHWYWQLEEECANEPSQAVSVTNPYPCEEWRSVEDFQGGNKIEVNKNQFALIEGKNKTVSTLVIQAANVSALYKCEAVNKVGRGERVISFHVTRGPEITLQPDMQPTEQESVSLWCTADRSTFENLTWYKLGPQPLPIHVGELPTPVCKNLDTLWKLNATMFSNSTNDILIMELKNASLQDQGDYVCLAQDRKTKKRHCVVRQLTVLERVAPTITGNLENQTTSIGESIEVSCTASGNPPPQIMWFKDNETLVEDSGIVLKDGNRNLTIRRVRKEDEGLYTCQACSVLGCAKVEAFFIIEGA

| Binder | binding result |
| --- | --- |
| anti-human VEGF receptor Flt-1 human chimeric antibody KM2532 (antibody, V domains shown) VH: QGQMQQSGAELVKPGASVKLSCKPSGFTFSSNYISWLKQKPGQSLEWIAWIYAGTGDASYNQKFTAKAHVTVDTSSSTAYMQLSSLTTEDSAIYYCARHGGDGYWFAYWGQGTLVTVSA VL: QLVLTQSPAIMSASQGEKVTMTCSASSSVSYMHWYQQKSGTSPKRWIYDTSKLPSGVPARFSGSGSGTSYSLTISSMEAEDAATYYCQQWSSNPPTFGAGTKLELK | no binding (tested: 0.0152 to 100 ng/ml) |
| anti-human VEGF receptor Flt-1 human chimeric antibody KM2550 (antibody, V domains shown) VH: QAFLQQSGAELVRPGASVKMSCKASGYTFINYNMHWVKQTPRQGLEWIGAIFPGNGFTSYNQKFKGKATLTVDKSSSTVYMQLRSLTSEDSAVYFCARDGDYYFDYWGQGTTLTVSS VL: QIVLTQSPAIMSASLGEEITLTCSASSSVSYMHWYQQKSGTSPKLLIYRTSNLASGVPFRFSGSGSGTFYSLTISSVEAEDAADYYCHQWSMYTFGGGTKLEIK | no binding (tested: 0.0152 to 100 ng/ml) |

Target: T1, soluble human VEGF receptor KDR 7N
Assay: ELISA, receptor coated at 10 µg/ml (3-fold dilutions)

| Binder | binding result |
| --- | --- |
| anti-human VEGF receptor Flt-1 human CDR-grafted antibody KM8550 (antibody, V domains shown, Human CDR-grafted IgG; also called 1750HV0 + 1750LV0(I); pKANTEX1750HV0LV0(I)) VH: QVQLVQSGAEVKKPGASVKVSCKASGYTFINYNMHWVRQAPGQGLEWMGAIFPGNGFTSYNQKFKGRVTITVDKSTSTAYMELSSLRSEDTAVYYCARDGDYYFDYWGQGTLVTVSS VL: DIQMTQSPSSLSASVGDRVTITCSASSSVSYMHWYQQKPGKAPKLLIYRTSNLASGVPSRFSGSGSGTDFTLTISSLQPEDFATYYCHQWSMYTFGQGTKVEIK | no binding (tested: 5 µg/ml) |
| anti-human VEGF receptor Flt-1 human CDR-grafted antibody KM8552 (antibody, V domains shown, Human CDR-grafted IgG with modified FR in VH; also called 1750HV3 + 1750LV0(I); pKANTEX1750HV3LV0(I)) VH: QVQLVQSGAEVKKPGASVKVSCKASGYTFINYNMHWVRQAPGQGLEWMGAIFPGNGFTSYNQKFKGRVTITVDKSTSTAYMQLRSLRSEDTAVYFCARDGDYYFDYWGQGTLVTVSS VL: DIQMTQSPSSLSASVGDRVTITCSASSSVSYMHWYQQKPGKAPKLLIYRTSNLASGVPSRFSGSGSGTDFTLTISSLQPEDFATYYCHQWSMYTFGQGTKVEIK | no binding (tested: 5 µg/ml) |
| anti-human VEGF receptor Flt-1 human CDR-grafted antibody KM8554 (antibody, V domains shown, Human CDR-grafted IgG with modified FR in VL; also called 1750HV0 + 1750LV4; pKANTEX1750HV0LV4) VH: QVQLVQSGAEVKKPGASVKVSCKASGYTFINYNMHWVRQAPGQGLEWMGAIFPGNGFTSYNQKFKGRVTITVDKSTSTAYMELSSLRSEDTAVYYCARDGDYYFDYWGQGTLVTVSS VL: DIQMTQSPSSLSASVGEEVTITCSASSSVSYMHWYQQKPGKAPKLLIYRTSNLASGVPSRFSGSGSGTFYTLTISSLQPEDFATYYCHQWSMYTFGQGTKVEIK | no binding (tested: 5 µg/ml) |
| anti-human VEGF receptor Flt-1 human CDR-grafted antibody KM8555 (antibody, V domains shown, Human CDR-grafted IgG with modified FR in VH and VL; also called 1750HV3 + 1750LV4; pKANTEX1750HV3LV4) VH: QVQLVQSGAEVKKPGASVKVSCKASGYTFINYNMHWVRQAPGQGLEWMGAIFPGNGFTSYNQKFKGRVTITVDKSTSTAYMQLRSLRSEDTAVYFCARDGDYYFDYWGQGTLVTVSS VL: DIQMTQSPSSLSASVGEEVTITCSASSSVSYMHWYQQKPGKAPKLLIYRTSNLASGVPSRFSGSGSGTFYTLTISSLQPEDFATYYCHQWSMYTFGQGTKVEIK | no binding (tested: 5 µg/ml) |
| anti-human VEGF receptor Flt-1 human CDR-grafted antibody KM8551 (antibody, V domains shown, Human CDR-grafted IgG; also called 1750HV0 + 1750LV0(IV); pKANTEX1750HV0LV0(IV)) VH: QVQLVQSGAEVKKPGASVKVSCKASGYTFINYNMHWVRQAPGQGLEWMGAIFPGNGFTSYNQKFKGRVTITVDKSTSTAYMELSSLRSEDTAVYYCARDGDYYFDYWGQGTLVTVSS VL: DIVMTQSPDSLAVSLGERATINCSASSSVSYMHWYQQKPGQPPKLLIYRTSNLASGVPDRFSGSGSGTDFTLTISSLQAEDVAVYYCHQWSMYTFGQGTKVEIK | no binding (tested: 5 µg/ml) |
| anti-human VEGF receptor Flt-1 human CDR-grafted antibody KM8553 (antibody, V domains shown, Human CDR-grafted IgG with modified FR in VH; also called 1750HV3 + 1750LV0(IV); pKANTEX1750HV3LV0(IV)) VH: QVQLVQSGAEVKKPGASVKVSCKASGYTFINYNMHWVRQAPGQGLEWMGAIFPGNGFTSYNQKFKGRVTITVDKSTSTAYMQLRSLRSEDTAVYFCARDGDYYFDYWGQGTLVTVSS VL: DIVMTQSPDSLAVSLGERATINCSASSSVSYMHWYQQKPGQPPKLLIYRTSNLASGVPDRFSGSGSGTDFTLTISSLQAEDVAVYYCHQWSMYTFGQGTKVEIK | no binding (tested: 5 µg/ml) |

Target: T1, soluble human VEGF receptor KDR 7N
Assay: ELISA, receptor coated at 4 µg/ml

| Binder | binding result |
| --- | --- |
| anti-human VEGF receptor Flt-1 mouse monoclonal antibody KM1732 (antibody, V domains shown, Mouse IgG1 from hybridoma KM1732 (FERM BP-5698); also called anti-human Flt-1 monoclonal antibody KM1732) VH: QGQMQQSGAELVKPGASVKLSCKPSGFTFSSNYISWLKQKPGQSLEWIAWIYAGTGDASYNQKFTAKAHVTVDTSSSTAYMQLSSLTTEDSAIYYCARHGGDGYWFAYWGQGTLVTVSA VL: QLVLTQSPAIMSASQGEKVTMTCSASSSVSYMHWYQQKSGTSPKRWIYDTSKLPSGVPARFSGSGSGTSYSLTISSMEAEDAATYYCQQWSSNPPTFGAGTKLELK | no binding (tested: 0.1 µg/ml) |
| anti-human VEGF receptor Flt-1 mouse monoclonal antibody KM1750 (antibody, V domains shown, Mouse IgG2b from hybridoma KM1750 (FERM BP-5700)) VH: QAFLQQSGAELVRPGASVKMSCKASGYTFINYNMHWVKQTPRQGLEWIGAIFPGNGFTSYNQKFKGKATLTVDKSSSTVYMQLRSLTSEDSAVYFCARDGDYYFDYWGQGTTLTVSS VL: QIVLTQSPAIMSASLGEEITLTCSASSSVSYMHWYQQKSGTSPKLLIYRTSNLASGVPFRFSGSGSGTFYSLTISSVEAEDAADYYCHQWSMYTFGGGTKLEIK | no binding (tested: 0.1 µg/ml) |
